Results as given in publication PMC9352680, “A comprehensive thermodynamic model for RNA binding by the Saccharomyces cerevisiae Pumilio protein PUF4”.

T1: PUF4 RNA-binding domain (Saccharomyces cerevisiae, UniProt P25339 537-888)
T1 sequence: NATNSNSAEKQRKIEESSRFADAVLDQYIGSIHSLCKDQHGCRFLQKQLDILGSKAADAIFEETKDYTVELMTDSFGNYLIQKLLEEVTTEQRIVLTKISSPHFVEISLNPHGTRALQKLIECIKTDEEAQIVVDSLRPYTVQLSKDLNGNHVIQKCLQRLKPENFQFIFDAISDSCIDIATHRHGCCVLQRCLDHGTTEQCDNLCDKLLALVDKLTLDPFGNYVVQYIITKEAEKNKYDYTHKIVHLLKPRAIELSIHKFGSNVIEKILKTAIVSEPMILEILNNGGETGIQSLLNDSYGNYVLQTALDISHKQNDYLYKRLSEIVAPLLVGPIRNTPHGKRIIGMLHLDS

B1: Id_ii_S2_P3E.2_K3.1_C3.2_[C-2G]_[T-1G]_H3.1_A3.1_F3.1_T3.2_[T9A]_[A10G] (ssRNA)
RNA: UUUGAUUAAUAUGAUAUCGUUCUUUCUGGUGUAUAUAAGUUCUUUCUCGAUAUCAUAUUAAUCUUU
B2: Id_ii_S2_P3E.2_K3.1_C3.2_[C-2G]_[T-1G]_H3.1_A3.1_F3.1_T3.2_[T9A]_[A10T] (ssRNA)
RNA: UUUGAUUAAUAUGAUAUCGUUCUUUCUGGUGUAUAUAAUUUCUUUCUCGAUAUCAUAUUAAUCUUU
B3: Id_ii_S2_P3E.2_K3.1_C3.2_[C-2G]_[T-1G]_H3.1_A3.1_F3.1_T3.2_[A10G] (ssRNA)
RNA: UUUGAUUAAUAUGAUAUCGUUCUUUCUGGUGUAUAUAUGUUCUUUCUCGAUAUCAUAUUAAUCUUU
B4: Id_ii_S2_P3E.2_K3.1_C3.2_[C-2G]_[T-1C]_H3.1_A3.1_F3.1_T3.2_[T9C]_[A10G] (ssRNA)
RNA: UUUGAUUAAUAUGAUAUCGUUCUUUCUGCUGUAUAUACGUUCUUUCUCGAUAUCAUAUUAAUCUUU
B5: Id_ii_S2_P3E.2_K3.1_C3.2_[C-2G]_[T-1C]_H3.1_A3.1_F3.1_T3.2_[A10T] (ssRNA)
RNA: UUUGAUUAAUAUGAUAUCGUUCUUUCUGCUGUAUAUAUUUUCUUUCUCGAUAUCAUAUUAAUCUUU
B6: Id_ii_S2_P3E.2_K3.1_C3.2_[C-2G]_H3.1_A3.1_F3.1_T3.2_[T9C]_[A10C] (ssRNA)
RNA: UUUGAUUAAUAUGAUAUCGUUCUUUCUGUUGUAUAUACCUUCUUUCUCGAUAUCAUAUUAAUCUUU
B7: Id_ii_S2_P3E.2_K3.1_C3.2_[C-2G]_H3.1_A3.1_F3.1_T3.2_[T9C]_[A10T] (ssRNA)
RNA: UUUGAUUAAUAUGAUAUCGUUCUUUCUGUUGUAUAUACUUUCUUUCUCGAUAUCAUAUUAAUCUUU
B8: Id_ii_S2_P3E.2_K3.1_C3.2_[C-2G]_H3.1_A3.1_F3.1_T3.2_[T9A]_[A10G] (ssRNA)
RNA: UUUGAUUAAUAUGAUAUCGUUCUUUCUGUUGUAUAUAAGUUCUUUCUCGAUAUCAUAUUAAUCUUU
B9: Id_ii_S2_P3E.2_K3.1_C3.2_[C-2G]_H3.1_A3.1_F3.1_T3.2_[A10C] (ssRNA)
RNA: UUUGAUUAAUAUGAUAUCGUUCUUUCUGUUGUAUAUAUCUUCUUUCUCGAUAUCAUAUUAAUCUUU
B10: Id_ii_S2_P3E.2_K3.1_C3.2_[C-2G]_H3.1_A3.1_F3.1_T3.2_[A10T] (ssRNA)
RNA: UUUGAUUAAUAUGAUAUCGUUCUUUCUGUUGUAUAUAUUUUCUUUCUCGAUAUCAUAUUAAUCUUU
B11: Id_ii_S2_P3E.2_K3.1_C3.2_[C-2T]_[T-1G]_H3.1_A3.1_F3.1_T3.2_[T9G]_[A10C] (ssRNA)
RNA: UUUGAUUAAUAUGAUAUCGUUCUUUCUUGUGUAUAUAGCUUCUUUCUCGAUAUCAUAUUAAUCUUU
B12: Id_ii_S2_P3E.2_K3.1_C3.2_[C-2T]_[T-1G]_H3.1_A3.1_F3.1_T3.2_[T9G]_[A10T] (ssRNA)
RNA: UUUGAUUAAUAUGAUAUCGUUCUUUCUUGUGUAUAUAGUUUCUUUCUCGAUAUCAUAUUAAUCUUU

Biological target: T1, PUF4 RNA-binding domain
Test: Mg; RNA-MaP; 20 mM Na-HEPES pH 7.4, 30 mM KOAc, 0.75 mM MgCl2, 0.1% Tween-20, 5% glycerol, 0.1 mg/mL BSA, 2 mM DTT; 25 C; 0.0125-409.6 nM protein
Details: tags: N-His6-TEV cleaved; C-SNAP kept, Cy3B-labelled; label: tethered on chip by stalled RNA polymerase

| Binder | Kd [nM] |
| --- | --- |
| UCUCUUCAACACUUAUUAACUCUCUU (ssRNA) [Id_ii_S1_P5E.4_K5.3_C5.2_[T-1A]_H5.3_A5.1_F5.1_T5.2_[T11A]_[A12C]] | > 2300 |
| UCUCUUUGUAUUAUACUCUCUU (ssRNA) [Ic_S1_P5E.1_K5.1_C5.1_H5.1_A5.1_F5.1_[T9A]_[A10C]_T5.1] | 2.48 |
| UCUCUUCAACACUUAUUAAUUCUCUU (ssRNA) [Id_ii_S1_P5E.4_K5.3_C5.2_[T-1A]_H5.3_A5.1_F5.1_T5.2_[T11A]_[A12T]] | > 2300 |
| UCUCUUCAACACUUAUUAAAUCUCUU (ssRNA) [Id_ii_S1_P5E.4_K5.3_C5.2_[T-1A]_H5.3_A5.1_F5.1_T5.2_[T11A]] | > 2300 |
| UCUCUUCAACACUUAUUAUGUCUCUU (ssRNA) [Id_ii_S1_P5E.4_K5.3_C5.2_[T-1A]_H5.3_A5.1_F5.1_T5.2_[A12G]] | > 2300 |
| UCUCUUCAACACUUAUUAUCUCUCUU (ssRNA) [Id_ii_S1_P5E.4_K5.3_C5.2_[T-1A]_H5.3_A5.1_F5.1_T5.2_[A12C]] | > 2300 |
| UCUCUUCUACACUUAUUACCUCUCUU (ssRNA) [Id_ii_S1_P5E.4_K5.3_C5.2_H5.3_A5.1_F5.1_T5.2_[T11C]_[A12C]] | > 2300 |
| UCUCUUCUACACUUAUUAUAUCUCUU (ssRNA) [Id_ii_S1_P5E.4_K5.3_C5.2_H5.3_A5.1_F5.1_T5.2] | > 2300 |
| B1 | 11.8 |
| B2 | 3.82 |
| B3 | 5.15 |
| B4 | 20.2 |
| UCUCUUUGUAUUAUAUUCUCUU (ssRNA) [Ib_S1_P5E.1_K5.1_C5.1_H5.1_A5.1_F5.1_[T9A]_[A10T]_T5.1] | 1.1 |
| B5 | 1.77 |
| B6 | 18 |
| B7 | 44.5 |
| B8 | 7.87 |
| B9 | 8.98 |
| B10 | 2.02 |
| B11 | 6.53 |
| B12 | 3.09 |
